Experimental data reported in patent US20170176432A1 (OSAKA UNIVERSITY, published 2017).

Legend:
[1] = target: T1, human β2-glycoprotein I (β2-GPI) (human, UniProt P02749 20-345); assay: flow cytometry of surface β2-GPI on 293T; HLA-DRB1*15:01
T1 construct: whole, on cells
T1 sequence (looked up): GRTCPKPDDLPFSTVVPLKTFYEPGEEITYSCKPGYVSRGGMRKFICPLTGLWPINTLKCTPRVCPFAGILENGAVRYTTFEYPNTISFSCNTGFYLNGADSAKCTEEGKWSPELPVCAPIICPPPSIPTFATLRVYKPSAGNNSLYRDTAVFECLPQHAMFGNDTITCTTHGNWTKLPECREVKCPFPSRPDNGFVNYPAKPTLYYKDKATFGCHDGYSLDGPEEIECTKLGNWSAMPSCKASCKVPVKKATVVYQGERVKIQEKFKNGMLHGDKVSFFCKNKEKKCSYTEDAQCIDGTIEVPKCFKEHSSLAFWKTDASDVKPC

human thyroglobulin (TG) [2] = target: T2, human thyroglobulin (TG) (human, UniProt P01266 20-2768); assay: flow cytometry of surface TG (anti-histidine antibody) on 293T; HLA-DRB1*15:01
T2 construct: whole, on cells; the tag is not described
T2 sequence (P01266 20-2768): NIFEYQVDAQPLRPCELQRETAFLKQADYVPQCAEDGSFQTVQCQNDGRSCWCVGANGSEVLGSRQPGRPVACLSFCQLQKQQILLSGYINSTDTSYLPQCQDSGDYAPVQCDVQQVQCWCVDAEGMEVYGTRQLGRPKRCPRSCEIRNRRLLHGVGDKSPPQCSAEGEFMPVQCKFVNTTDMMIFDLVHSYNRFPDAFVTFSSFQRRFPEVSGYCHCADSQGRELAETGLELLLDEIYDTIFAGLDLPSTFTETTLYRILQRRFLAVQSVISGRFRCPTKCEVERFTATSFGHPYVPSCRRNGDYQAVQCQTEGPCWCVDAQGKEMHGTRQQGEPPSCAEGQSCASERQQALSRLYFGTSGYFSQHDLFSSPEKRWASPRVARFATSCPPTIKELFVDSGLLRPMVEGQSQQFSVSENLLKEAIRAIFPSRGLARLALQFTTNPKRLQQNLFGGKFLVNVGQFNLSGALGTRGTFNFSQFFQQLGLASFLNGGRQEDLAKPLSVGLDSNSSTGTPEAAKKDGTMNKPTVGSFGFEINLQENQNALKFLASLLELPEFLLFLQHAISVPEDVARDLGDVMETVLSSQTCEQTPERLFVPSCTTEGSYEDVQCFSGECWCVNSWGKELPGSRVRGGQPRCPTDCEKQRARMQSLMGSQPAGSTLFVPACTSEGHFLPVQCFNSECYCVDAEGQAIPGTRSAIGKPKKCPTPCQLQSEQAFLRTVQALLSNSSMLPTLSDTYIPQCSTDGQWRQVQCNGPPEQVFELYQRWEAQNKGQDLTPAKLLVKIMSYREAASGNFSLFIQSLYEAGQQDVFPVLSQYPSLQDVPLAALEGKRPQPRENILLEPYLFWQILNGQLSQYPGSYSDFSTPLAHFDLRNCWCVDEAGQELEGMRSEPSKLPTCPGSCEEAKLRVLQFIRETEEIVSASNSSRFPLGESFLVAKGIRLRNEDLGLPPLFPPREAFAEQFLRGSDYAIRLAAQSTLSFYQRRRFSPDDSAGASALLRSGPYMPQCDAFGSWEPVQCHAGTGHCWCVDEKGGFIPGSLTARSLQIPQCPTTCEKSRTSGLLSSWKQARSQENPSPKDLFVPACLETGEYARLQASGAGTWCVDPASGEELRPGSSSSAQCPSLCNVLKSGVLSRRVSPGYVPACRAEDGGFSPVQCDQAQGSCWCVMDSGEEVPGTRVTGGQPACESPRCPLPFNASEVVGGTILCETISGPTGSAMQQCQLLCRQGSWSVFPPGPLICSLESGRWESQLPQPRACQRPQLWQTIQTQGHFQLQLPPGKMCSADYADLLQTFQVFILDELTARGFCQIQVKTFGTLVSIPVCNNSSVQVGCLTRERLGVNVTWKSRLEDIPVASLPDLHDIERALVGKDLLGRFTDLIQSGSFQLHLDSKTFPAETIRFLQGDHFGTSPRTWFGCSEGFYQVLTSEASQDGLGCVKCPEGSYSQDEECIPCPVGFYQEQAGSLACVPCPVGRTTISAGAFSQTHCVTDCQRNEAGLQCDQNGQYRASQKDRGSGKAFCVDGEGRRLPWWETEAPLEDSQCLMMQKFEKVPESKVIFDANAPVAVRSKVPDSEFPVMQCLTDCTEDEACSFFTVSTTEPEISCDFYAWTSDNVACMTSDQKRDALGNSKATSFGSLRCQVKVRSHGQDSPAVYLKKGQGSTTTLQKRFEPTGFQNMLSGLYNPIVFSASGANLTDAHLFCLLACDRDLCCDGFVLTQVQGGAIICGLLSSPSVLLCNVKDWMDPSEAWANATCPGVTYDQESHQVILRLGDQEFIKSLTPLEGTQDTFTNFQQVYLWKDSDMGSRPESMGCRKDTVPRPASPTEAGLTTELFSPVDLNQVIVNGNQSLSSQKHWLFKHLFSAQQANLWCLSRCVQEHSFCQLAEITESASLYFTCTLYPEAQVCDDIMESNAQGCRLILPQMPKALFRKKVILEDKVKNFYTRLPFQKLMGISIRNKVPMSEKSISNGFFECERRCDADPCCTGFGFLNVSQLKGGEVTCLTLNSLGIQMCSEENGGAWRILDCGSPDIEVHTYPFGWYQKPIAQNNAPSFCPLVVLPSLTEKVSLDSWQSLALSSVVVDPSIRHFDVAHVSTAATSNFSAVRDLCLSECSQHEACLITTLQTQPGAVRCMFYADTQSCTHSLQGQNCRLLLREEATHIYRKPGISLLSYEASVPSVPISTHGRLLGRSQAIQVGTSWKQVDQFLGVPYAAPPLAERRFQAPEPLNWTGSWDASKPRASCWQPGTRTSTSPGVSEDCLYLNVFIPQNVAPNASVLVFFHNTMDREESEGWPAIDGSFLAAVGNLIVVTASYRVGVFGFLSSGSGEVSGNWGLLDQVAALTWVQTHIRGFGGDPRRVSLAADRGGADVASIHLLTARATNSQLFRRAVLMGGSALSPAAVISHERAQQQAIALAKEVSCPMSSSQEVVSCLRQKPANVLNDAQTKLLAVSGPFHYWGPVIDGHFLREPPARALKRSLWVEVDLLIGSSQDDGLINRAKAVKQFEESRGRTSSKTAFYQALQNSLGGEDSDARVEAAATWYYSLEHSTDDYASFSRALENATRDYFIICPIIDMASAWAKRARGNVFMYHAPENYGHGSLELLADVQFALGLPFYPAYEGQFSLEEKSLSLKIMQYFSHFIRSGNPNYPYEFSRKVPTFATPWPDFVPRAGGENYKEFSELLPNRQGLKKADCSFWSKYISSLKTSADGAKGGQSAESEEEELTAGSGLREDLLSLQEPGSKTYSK

[3] = target: T1, human β2-glycoprotein I (β2-GPI); assay: flow cytometry of surface β2-GPI on 293T; HLA-DRB3*02:02
[4] = target: T1, human β2-glycoprotein I (β2-GPI); assay: flow cytometry of surface β2-GPI on 293T; HLA-DRB1*14:06
[5] = target: T1, human β2-glycoprotein I (β2-GPI); assay: flow cytometry of surface β2-GPI on 293T; HLA-DRB4*01:03
human thyroglobulin (TG) [6] = target: T2, human thyroglobulin (TG); assay: flow cytometry of surface TG (anti-histidine antibody) on 293T; HLA-DRB4*01:03

B1: HLA-DR (HLA-DRA*01:01/HLA-DRB1*15:01) (other, human)
MHC II alpha: not shown
MHC II beta: not shown
notes: whole, on cells; also called HLA-DR15
B1: binds [1]; binds (human thyroglobulin (TG) [2]).

B2: HLA-DR (HLA-DRA*01:01/HLA-DRB3*02:02) (other, human)
MHC II alpha: not shown
MHC II beta: not shown
notes: whole, on cells
B2: binds [3].

B3: HLA-DR (HLA-DRA*01:01/HLA-DRB1*14:06) (other, human)
MHC II alpha: not shown
MHC II beta: not shown
notes: whole, on cells
B3: binds [4].

B4: HLA-DR (HLA-DRA*01:01/HLA-DRB4*01:03) (other, human)
MHC II alpha: not shown
MHC II beta: not shown
notes: whole, on cells; also called HLA-DR53
B4: binds [5]; binds (human thyroglobulin (TG) [6]).
